Assay results reported in patent US20180155451A1 (published 2018).
Numbering of substitutions follows the chain as printed.

T1: FcγRIIb (human, UniProt P31994 43-217)
T1 construct: extracellular domain; also called FcgRIIb
T1 sequence (looked up): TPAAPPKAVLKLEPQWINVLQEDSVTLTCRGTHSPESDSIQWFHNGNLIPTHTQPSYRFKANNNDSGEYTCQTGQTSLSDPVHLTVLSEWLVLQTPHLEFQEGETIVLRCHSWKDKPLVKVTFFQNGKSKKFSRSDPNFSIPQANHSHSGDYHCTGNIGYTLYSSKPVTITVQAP

T2: FcγRIIa R (human, UniProt P12318 34-217)
T2 construct: extracellular domain; also called FcgRIIa R; FcγRIIa type R
T2 sequence (looked up): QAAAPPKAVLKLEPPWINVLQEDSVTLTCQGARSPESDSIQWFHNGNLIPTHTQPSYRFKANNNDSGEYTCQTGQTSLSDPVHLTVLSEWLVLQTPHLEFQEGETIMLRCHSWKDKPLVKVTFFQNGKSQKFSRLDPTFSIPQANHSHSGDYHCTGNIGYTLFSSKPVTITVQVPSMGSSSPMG

T3: FcγRIIa H (human, UniProt P12318 34-217)
T3 construct: extracellular domain; Soluble extracellular domain with C-terminal His tag, expressed in FreeStyle293 cells; also called FcgRIIa H; 2aH; not shown: C-terminal His tag
T3 sequence (looked up): T2 sequence (looked up) with R134H

T4: FcγRIIb (human, UniProt P31994 43-217)
T4 construct: extracellular domain; Soluble extracellular domain with C-terminal His tag, expressed in FreeStyle293 cells; also called FcgRIIb; 2b; not shown: C-terminal His tag
T4 sequence (looked up): T1 sequence (looked up)

B1: GpH7-A5/GpH7-B3 variant P329_01G/GpL16-k0 (antibody, human IgG1, kappa)
heavy 1: not shown
heavy 2: not shown
light: DIVMTQSPLSLPVTPGEPASISCQASESLVHSNRNTYLHWYLQKPGQSPQLLIYKVSNRFSGVPDRFSGSGSGTDFTLKISRVEAEDVGVYYCSQNTHVPPTFGQGTKVEIERTVAAPSVFIFPPSDEQLKSGTASVVCLLNNFYPREAKVQWKVDNALQSGNSQESVTEQDSKDSTYSLSSTLTLSKADYEKHKVYACEVTHQGLSSPVTKSFNRGEC
notes: He Ab; IgG1; mutation in one H chain only
B2: GpH7-A5/GpH7-B3 variant A330_09D/GpL16-k0 (antibody, human IgG1, kappa)
heavy 1: not shown
heavy 2: not shown
light: B1 light
notes: as for B1
B3: GpH7-A5/GpH7-B3 variant A330_07I/GpL16-k0 (antibody, human IgG1, kappa)
heavy 1: not shown
heavy 2: not shown
light: B1 light
notes: as for B1
B4: GpH7-A5/GpH7-B3 variant A330_08L/GpL16-k0 (antibody, human IgG1, kappa)
heavy 1: not shown
heavy 2: not shown
light: B1 light
notes: as for B1
B5: GpH7-A5/GpH7-B3 variant A330_10E/GpL16-k0 (antibody, human IgG1, kappa)
heavy 1: not shown
heavy 2: not shown
light: B1 light
notes: as for B1
B6: GpH7-A5/GpH7-B3 variant A330_12R/GpL16-k0 (antibody, human IgG1, kappa)
heavy 1: not shown
heavy 2: not shown
light: B1 light
notes: as for B1
B7: GpH7-A5/GpH7-B3 variant A330_03V/GpL16-k0 (antibody, human IgG1, kappa)
heavy 1: not shown
heavy 2: not shown
light: B1 light
notes: as for B1
B8: GpH7-A5/GpH7-B3 variant G237_02A/GpL16-k0 (antibody, human IgG1, kappa)
heavy 1: not shown
heavy 2: not shown
light: B1 light
notes: Heterodimerized anti-glypican-3 IgG1; alteration in the GpH7-B3 chain only; also called He Ab
B9: GpH7-A5/GpH7-B3 variant S267_07I/GpL16-k0 (antibody, human IgG1, kappa)
heavy 1: not shown
heavy 2: not shown
light: B1 light
notes: as for B8
B10: GpH7-A5/GpH7-B3 variant P238_01G/GpL16-k0 (antibody, human IgG1, kappa)
heavy 1: not shown
heavy 2: not shown
light: B1 light
notes: as for B8
B11: GpH7-A5/GpH7-B3 variant P238_16H/GpL16-k0 (antibody, human IgG1, kappa)
heavy 1: not shown
heavy 2: not shown
light: B1 light
notes: as for B8
B12: GpH7-A5/GpH7-B3 variant S239_06M/GpL16-k0 (antibody, human IgG1, kappa)
heavy 1: not shown
heavy 2: not shown
light: B1 light
notes: as for B8
B13: GpH7-A5/GpH7-B3 variant G237_18N/GpL16-k0 (antibody, human IgG1, kappa)
heavy 1: not shown
heavy 2: not shown
light: B1 light
notes: as for B8
B14: GpH7-A5/GpH7-B3 variant P238_08L/GpL16-k0 (antibody, human IgG1, kappa)
heavy 1: not shown
heavy 2: not shown
light: B1 light
notes: as for B8
B15: GpH7-A5/GpH7-B3 variant L234_10E/GpL16-k0 (antibody, human IgG1, kappa)
heavy 1: not shown
heavy 2: not shown
light: B1 light
notes: as for B8
B16: GpH7-A5/GpH7-B3 variant S239_01G/GpL16-k0 (antibody, human IgG1, kappa)
heavy 1: not shown
heavy 2: not shown
light: B1 light
notes: as for B8
B17: GpH7-A5/GpH7-B3 variant S267_08L/GpL16-k0 (antibody, human IgG1, kappa)
heavy 1: not shown
heavy 2: not shown
light: B1 light
notes: as for B8
B18: GpH7-A5/GpH7-B3 variant G237_13S/GpL16-k0 (antibody, human IgG1, kappa)
heavy 1: not shown
heavy 2: not shown
light: B1 light
notes: as for B8

target: T1, FcγRIIb; test: SPR (Biacore), captured antibody, FcγR analyte; binding relative to GpH7-A5/GpH7-B3/GpL16-k0 = 100

| He/Con_2b (IIb binding) | Binder |
| --- | --- |
| 41.7 control=100 | B1 |
| 55.6 control=100 | B2 |
| 67.1 control=100 | B3 |
| 70.5 control=100 | B4 |
| 70.1 control=100 | B5 |
| 84.8 control=100 | B6 |
| 52.4 control=100 | B7 |

target: T2, FcγRIIa R; test: as above

| He/Con_2aR (IIaR binding) | Binder |
| --- | --- |
| 55 control=100 | B1 |
| 70.9 control=100 | B2 |
| 85.6 control=100 | B3 |
| 88.8 control=100 | B4 |
| 86.6 control=100 | B5 |
| 104 control=100 | B6 |
| 74.9 control=100 | B7 |

target: T2, FcγRIIa R; test: He/Con_2aR divided by He/Con_2b (FcγRIIa R over FcγRIIb); SPR (Biacore)

| IIaR/IIb (He_2aR/2b) | Binder |
| --- | --- |
| 1.32 ratio | B1 |
| 1.27 ratio | B2 |
| 1.27 ratio | B3 |
| 1.26 ratio | B4 |
| 1.23 ratio | B5 |
| 1.22 ratio | B6 |
| 1.43 ratio | B7 |

target: T3, FcγRIIa H; test: SPR (Biacore), antibody captured, FcγR as analyte; relative to HeCon Ab
Experimental: (§1) The heterodimerized antibodies He Abs in which one of the H chains was introduced with an alteration were assayed for their binding activities to each activating FcγR and inhibitory FcγR according to the method described in Example 4. […] The activating FcγRs in FIGS. 26, 27, 28, and 29 are FcγRIa, FcγRIIa (R), FcγRIIa (H), and FcγRIIIa, respectively.
(§2) Analysis of interaction between objective antibody and the FcγR was carried out using Biacore T100 (GE Healthcare). HBS-EP+ (GE Healthcare) was used as the running buffer, and the measurement temperature was set to 25° C. Chips produced by immobilizing the antigen peptide by the amine coupling method to a Series S Sencor Chip CM5 (GE Healthcare), or alternatively, chips produced by allowing preliminarily biotinylated antigen peptides to interact with and immobilize onto a Series S Sensor Chip SA (certified) (GE Healthcare) were used. Antibodies of interest were captured onto an antigen peptide-immobilized chip, and allowed to interact to each FcγR diluted with running buffer. To regenerate and repeatedly use the chip, the antibodies captured on the chip were washed off by reacting 10 mM glycine-HCl, pH 1.5.

| He/Con_2aH | Binder |
| --- | --- |
| 34 % of GpH7-A5/GpH7-B3/GpL16-k0 (=100) | B8 |
| 34.7 % of GpH7-A5/GpH7-B3/GpL16-k0 (=100) | B9 |
| 37.3 % of GpH7-A5/GpH7-B3/GpL16-k0 (=100) | B10 |
| 45.9 % of GpH7-A5/GpH7-B3/GpL16-k0 (=100) | B11 |
| 98.6 % of GpH7-A5/GpH7-B3/GpL16-k0 (=100) | B12 |
| 15.2 % of GpH7-A5/GpH7-B3/GpL16-k0 (=100) | B13 |
| 84.6 % of GpH7-A5/GpH7-B3/GpL16-k0 (=100) | B14 |
| 88.3 % of GpH7-A5/GpH7-B3/GpL16-k0 (=100) | B15 |
| 97 % of GpH7-A5/GpH7-B3/GpL16-k0 (=100) | B16 |
| 29 % of GpH7-A5/GpH7-B3/GpL16-k0 (=100) | B17 |
| 29.8 % of GpH7-A5/GpH7-B3/GpL16-k0 (=100) | B18 |

target: T4, FcγRIIb; test: as above
Experimental: as §1, §2

| He/Con_2b | Binder |
| --- | --- |
| 124 % of GpH7-A5/GpH7-B3/GpL16-k0 (=100) | B8 |
| 192 % of GpH7-A5/GpH7-B3/GpL16-k0 (=100) | B9 |
| 56 % of GpH7-A5/GpH7-B3/GpL16-k0 (=100) | B10 |
| 115 % of GpH7-A5/GpH7-B3/GpL16-k0 (=100) | B11 |
| 101 % of GpH7-A5/GpH7-B3/GpL16-k0 (=100) | B12 |
| 180 % of GpH7-A5/GpH7-B3/GpL16-k0 (=100) | B13 |
| 204 % of GpH7-A5/GpH7-B3/GpL16-k0 (=100) | B14 |
| 118 % of GpH7-A5/GpH7-B3/GpL16-k0 (=100) | B15 |
| 144 % of GpH7-A5/GpH7-B3/GpL16-k0 (=100) | B16 |
| 109 % of GpH7-A5/GpH7-B3/GpL16-k0 (=100) | B17 |
| 111 % of GpH7-A5/GpH7-B3/GpL16-k0 (=100) | B18 |
